Data as given in paper PMC10786891, “Massively parallel profiling of RNA-targeting CRISPR-Cas13d”.
Substitutions are numbered along the chain they refer to. Names and notes keep the numbering of the source.

T1: EsCas13d, nuclease-dead (Eubacterium siraeum, UniProt B0MS50, R295A;H300A;R849A;H854A)
T1 sequence: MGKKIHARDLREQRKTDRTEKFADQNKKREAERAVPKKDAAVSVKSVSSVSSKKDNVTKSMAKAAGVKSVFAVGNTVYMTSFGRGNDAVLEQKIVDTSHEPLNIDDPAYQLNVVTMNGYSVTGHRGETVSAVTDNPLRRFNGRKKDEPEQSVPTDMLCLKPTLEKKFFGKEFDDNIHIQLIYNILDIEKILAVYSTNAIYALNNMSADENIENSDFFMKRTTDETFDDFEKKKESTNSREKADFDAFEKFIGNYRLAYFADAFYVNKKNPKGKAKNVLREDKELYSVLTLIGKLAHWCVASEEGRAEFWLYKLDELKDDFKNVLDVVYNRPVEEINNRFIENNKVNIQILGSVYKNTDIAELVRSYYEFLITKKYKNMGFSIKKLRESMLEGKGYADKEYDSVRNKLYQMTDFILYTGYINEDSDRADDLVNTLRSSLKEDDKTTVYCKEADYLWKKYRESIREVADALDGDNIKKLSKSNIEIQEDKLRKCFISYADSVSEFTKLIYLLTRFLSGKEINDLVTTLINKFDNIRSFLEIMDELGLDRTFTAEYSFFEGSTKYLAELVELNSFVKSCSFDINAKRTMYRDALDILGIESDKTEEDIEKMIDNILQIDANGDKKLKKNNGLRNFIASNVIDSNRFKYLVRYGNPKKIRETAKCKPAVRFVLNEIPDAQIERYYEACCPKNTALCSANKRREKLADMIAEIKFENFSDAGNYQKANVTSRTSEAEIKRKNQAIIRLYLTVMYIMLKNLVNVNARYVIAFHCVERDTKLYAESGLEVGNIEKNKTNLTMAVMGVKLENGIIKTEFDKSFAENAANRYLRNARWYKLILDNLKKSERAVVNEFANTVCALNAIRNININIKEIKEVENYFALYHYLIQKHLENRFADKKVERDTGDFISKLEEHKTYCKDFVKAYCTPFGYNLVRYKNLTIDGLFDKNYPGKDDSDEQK

B1: target 1 insC 3' of 8,insG 3' of 2 (mixed)
RNA 1: CACCCGUGCAAAAAUGCAGGGGUCUAAAACUGAGCGGAUAACCUCUCUAUGG
RNA 2: GGGAAUGGAUCCACAUCUACGAAUUCGUACCAUAGAGAGGUUAUCCCGCUCGACCGAGAUCGGAAGAGCACACGU
B2: target 1 insG 3' of 6,insA 3' of 5 (mixed)
RNA 1: B1 RNA 1
RNA 2: B1 RNA 2 with C47G, C49A, U50C, C51U, G52C
B3: target 1 G13A,G17U (mixed)
RNA 1: B1 RNA 1
RNA 2: GGGAAUGGAUCCACAUCUACGAAUUCGUACCAUAUAGAAGUUAUCCGCUCACCGAGAUCGGAAGAGCACACGU
B4: target 1 insU 3' of 9,insG 3' of 9 (mixed)
RNA 1: B1 RNA 1
RNA 2: B1 RNA 2 with C45G, C46U, G48C, C49G, U50C, C51U, G52C
B5: target 1 insA 3' of 17,insC 3' of 12 (mixed)
RNA 1: B1 RNA 1
RNA 2: GGGAAUGGAUCCACAUCUACGAAUUCGUACCAUAGAAGAGGCUUAUCCGCUCACCGAGAUCGGAAGAGCACACGU
B6: target 1 insG 3' of 20,insA 3' of 7 (mixed)
RNA 1: B1 RNA 1
RNA 2: B5 RNA 2 with U33G, A34U, G35A, A36G, C42U, U44A, A45U, U46C, C47A
B7: target 1 G5U,C7G (mixed)
RNA 1: B1 RNA 1
RNA 2: B3 RNA 2 with U35G, A39G, C45G, G47U
B8: target 1 G12A,U19G (mixed)
RNA 1: B1 RNA 1
RNA 2: B3 RNA 2 with U33G, U35G, A39G, G40A
B9: target 1 U3A,U8A (mixed)
RNA 1: B1 RNA 1
RNA 2: B3 RNA 2 with U35G, A39G, U44A, U49A
B10: target 1 insG 3' of 6,insC 3' of 3 (mixed)
RNA 1: B1 RNA 1
RNA 2: B1 RNA 2 with C47G, G52C
B11: target 1 C2G,C4A (mixed)
RNA 1: B1 RNA 1
RNA 2: B3 RNA 2 with U35G, A39G, C48A, C50G
B12: target 1 insA 3' of 19,insG 3' of 18 (mixed)
RNA 1: B1 RNA 1
RNA 2: B5 RNA 2 with G35A, A36G, A37G, G38A, A39G, G40A, C42G
B13: target 1 insC 3' of 14,insA 3' of 11 (mixed)
RNA 1: B1 RNA 1
RNA 2: B5 RNA 2 with A37G, G38A, A39C, C42U, U43A
B14: target 1 insA 3' of 12,insG 3' of 8 (mixed)
RNA 1: B1 RNA 1
RNA 2: B5 RNA 2 with A37G, G38A, A39G, G41A, C42U, U44A, A45U, U46G
B15: target 1 A9G (mixed)
RNA 1: B1 RNA 1
RNA 2: B3 RNA 2 with U35G, A39G, A43G
B16: target 1 insC 3' of 14,insG 3' of 3 (mixed)
RNA 1: B1 RNA 1
RNA 2: B1 RNA 2 with G39C, U41G, A43U, U44A, C45U, C51G, G52C
B17: target 1 insC 3' of 15,insG 3' of 6 (mixed)
RNA 1: B1 RNA 1
RNA 2: B5 RNA 2 with A37G, G38C, C42U, U44A, A45U, U46C, C48G
B18: target 1 insC 3' of 18,insU 3' of 6 (mixed)
RNA 1: B1 RNA 1
RNA 2: B5 RNA 2 with G35C, A36G, C42U, U44A, A45U, U46C, C48U
B19: target 1 U10A,A16U (mixed)
RNA 1: B1 RNA 1
RNA 2: B3 RNA 2 with U35G, A36U, A39G, U42A
B20: target 1 insU 3' of 20,insC 3' of 13 (mixed)
RNA 1: B1 RNA 1
RNA 2: B5 RNA 2 with A34U, G35A, A36G, G41C, C42G
B21: target 1 insA 3' of 13,insC 3' of 11 (mixed)
RNA 1: B1 RNA 1
RNA 2: B5 RNA 2 with A37G, G38A, A39G, G40A, C42U, U43C
B22: target 1 del9,del15 (mixed)
RNA 1: B1 RNA 1
RNA 2: GGGAAUGGAUCCACAUCUACGAAUUCGUACCAUAGAAGGUUUCCGCUCACCGAGAUCGGAAGAGCACACGU
B23: target 1 insC 3' of 14,insC 3' of 5 (mixed)
RNA 1: B1 RNA 1
RNA 2: B1 RNA 2 with G39C, U41G, A43U, U44A, C45U, U50C, C51U, G52C
B24: target 1 insG 3' of 18,insU 3' of 12 (mixed)
RNA 1: B1 RNA 1
RNA 2: B5 RNA 2 with A36G, C42U
B25: target 1 insG 3' of 14,insC 3' of 12 (mixed)
RNA 1: B1 RNA 1
RNA 2: B5 RNA 2 with A37G, G38A, A39G
B26: target 1 insC 3' of 17,insG 3' of 6 (mixed)
RNA 1: B1 RNA 1
RNA 2: B5 RNA 2 with A36C, C42U, U44A, A45U, U46C, C48G
B27: target 1 insA 3' of 15,insU 3' of 7 (mixed)
RNA 1: B1 RNA 1
RNA 2: B5 RNA 2 with A37G, G38A, C42U, U44A, A45U, U46C, C47U
B28: target 1 insA 3' of 13,insC 3' of 5 (mixed)
RNA 1: B1 RNA 1
RNA 2: B1 RNA 2 with G40A, U41G, A43U, U44A, C45U, U50C, C51U, G52C
B29: target 1 insC 3' of 14,insA 3' of 2 (mixed)
RNA 1: B1 RNA 1
RNA 2: B1 RNA 2 with G39C, U41G, A43U, U44A, C45U, G52A
B30: target 1 C6U,G17U (mixed)
RNA 1: B1 RNA 1
RNA 2: B3 RNA 2 with A39G, C46U
B31: target 1 insA 3' of 12 (mixed)
RNA 1: B1 RNA 1
RNA 2: GGGAAUGGAUCCACAUCUACGAAUUCGUACCAUAGAGAGGAUUAUCCGCUCACCGAGAUCGGAAGAGCACACGU
B32: target 1 insC 3' of 20,insC 3' of 1 (mixed)
RNA 1: B1 RNA 1
RNA 2: GGGAAUGGAUCCACAUCUACGAAUUCGUACCACUAGAGAGGUUAUCCGCUCACCCGAGAUCGGAAGAGCACACGU
B33: target 1 insU 3' of 12,insG 3' of 4 (mixed)
RNA 1: B1 RNA 1
RNA 2: B1 RNA 2 with A43U, U44A, C45U, U50G, C51U, G52C
B34: target 1 insA 3' of 21,insG 3' of 19 (mixed)
RNA 1: B1 RNA 1
RNA 2: B5 RNA 2 with U33A, A34U, A37G, G38A, A39G, G40A, C42G

Target: T1, EsCas13d, nuclease-dead
Assay: crRNA (strand 1, pre-loaded); Mg2+; 40 mM Tris-HCl pH 7.5, 150 mM NaCl, 6 mM MgCl2, 1 mM DTT, 0.1% Tween-20, 0.2 mg/ml BSA; 25 C; 10 min per concentration, then washed
Conditions: tags: His6-TwinStrep-SUMO cleaved; N-terminal SNAP kept (SNAP-Surface 488); label: 3' end held by stalled T7 RNA polymerase

Binder | Kd
B1 | 21 ± 1.5 nM
B2 | 19.3 ± 1.8 nM
B3 | 28.6 ± 2.7 nM
B4 | 13.2 ± 0.5 nM
B5 | 23 ± 4 nM
B6 | 26.1 ± 3 nM
B7 | 16.8 ± 0.9 nM
B8 | 54 ± 15 nM
B9 | 10.6 ± 0.5 nM
B10 | 13.7 ± 0.8 nM
B11 | 6.94 ± 0.32 nM
B12 | 97 ± 30 nM
B13 | 42 ± 5 nM
B14 | 32 ± 2.7 nM
B15 | 13.2 ± 0.4 nM
B16 | 25.6 ± 2.7 nM
B17 | 22.1 ± 0.9 nM

Binder | Kd
B18 | 39 ± 4 nM
B19 | 42 ± 4 nM
B20 | 28 ± 3 nM
B21 | 7.8 ± 0.6 nM
B22 | 44 ± 6 nM
B23 | 75 ± 17 nM
B24 | 50 ± 6 nM
B25 | 16.7 ± 0.9 nM
B26 | 43 ± 8 nM
B27 | 13.5 ± 0.9 nM
B28 | 3.35 ± 0.18 nM
B29 | 52 ± 13 nM
B30 | 22.3 ± 1.5 nM
B31 | 29.5 ± 2.9 nM
B32 | 8 ± 0.5 nM
B33 | 4.6 ± 0.17 nM
B34 | 51 ± 5 nM
